US20250066503A1, “CELL INJURY INDUCING THERAPEUTIC DRUG FOR USE IN CANCER THERAPY” (CHUGAI SEIYAKU KABUSHIKI KAISHA, priority 2016, published 2025)
Substitutions are numbered along the chain they refer to.

B1: GCH054-G1dh/none-Hi-Kn010G3/L0246-k0 (antibody, V domains shown)
VH: QVQLVQSGAEVKKPGASVTVSCKASGYTFTDYEMHWIRQPPGEGLEWIGAIDGETPDTAYSEKFKGRVTLTADKSTSTAYMELSSLTSEDTAVYYCTRFYSYTYWGQGTLVTVSS
VL: DIVMTQSPLSLPVTPGEPASISCRSSQSPVHSNRNTYIQWYQQKPGQAPRLLIYKVSNRFSGVPDRFSGSGSGTDFTLKISRVEAEDVGVYYCSQGTQVPYTFGQGTKLEIK
notes: one-arm
B2: GCH054-G1dh/none-Hi-Kn010G3/TR01L015-k0 (antibody, V domains shown)
VH: B1 VH
VL: B1 VL with I38L, Q39H, Q42L, A48S, R50Q, S94G
notes: one-arm
B3: GCH054-G1dh/none-Hi-Kn010G3/TR01L019-k0 (antibody, V domains shown)
VH: B1 VH
VL: B1 VL with R24Q, S25A, Q27E, I38L, Q39H, Q42L, A48S, R50Q, S94Y
notes: one-arm
B4: GCH060-G1dh/none-Hi-Kn010G3/L0200-k0 (antibody, V domains shown)
VH: B1 VH with T30E, E62Q, K65E, S88E
VL: B1 VL with S25P, I38L, Q39H, S94G
notes: one-arm
B5: GCH054-G1dh/none-Hi-Kn010G3/TR01L016-k0 (antibody, V domains shown)
VH: B1 VH
VL: B1 VL with I38L, Q39H, Q42L, A48S, R50Q, S94Y
notes: one-arm
B6: GCH054-G1dh/none-Hi-Kn010G3/TR01L018-k0 (antibody, V domains shown)
VH: B1 VH
VL: B1 VL with R24Q, S25A, Q27E, I38L, Q39H, Q42L, A48S, R50Q, S94G
notes: one-arm
B7: GCH056-G1dh/none-Hi-Kn010G3/L0262-k0 (antibody, V domains shown)
VH: B1 VH with E62Q, K65E
VL: B1 VL with S28P, I38L, Q39H, S94A
notes: one-arm
B8: GCH054-G1dh/none-Hi-Kn010G3/L0262-k0 (antibody, V domains shown)
VH: B1 VH
VL: B1 VL with S28P, I38L, Q39H, S94A
notes: one-arm
B9: GCH065-G1dh/none-Hi-Kn010G3/L0262-k0 (antibody, V domains shown)
VH: B1 VH with E54P
VL: B1 VL with S28P, I38L, Q39H, S94A
notes: one-arm
B10: GCH065-G1dh/none-Hi-Kn010G3/L0272-k0 (antibody, V domains shown)
VH: B1 VH with E54P
VL: B1 VL with S28P, P29L, N35Q, I38L, Q39H, S94G
notes: one-arm
B11: GCH056-G1dh/none-Hi-Kn010G3/L0215-k0 (antibody, V domains shown)
VH: B1 VH with E62Q, K65E
VL: B1 VL with S28P, Q39H, S94G
notes: one-arm
B12: GCH094-G1dh/none-Hi-Kn010G3/L0246-k0 (antibody, V domains shown)
VH: B1 VH with I37V, P40A, I48M
VL: B1 VL
notes: one-arm
B13: GCH094-G1dh/none-Hi-Kn010G3/L0271-k0 (antibody, V domains shown)
VH: B1 VH with I37V, P40A, I48M
VL: B1 VL with S28P, N35Q, I38L, Q39H, S94G
notes: one-arm
B14: GCH054-G1dh/none-Hi-Kn010G3/L0249-k0 (antibody, V domains shown)
VH: B1 VH
VL: B1 VL with S25P
notes: one-arm
B15: GCH094-G1dh/none-Hi-Kn010G3/L0270-k0 (antibody, V domains shown)
VH: B1 VH with I37V, P40A, I48M
VL: B1 VL with P29L, N35Q, I38L, Q39H, S94G
notes: one-arm
B16: GCH055-G1dh/none-Hi-Kn010G3/L0200-k0 (antibody, V domains shown)
VH: B1 VH with E62D
VL: B1 VL with S25P, I38L, Q39H, S94G
notes: one-arm
B17: GCH057-G1dh/none-Hi-Kn010G3/L0215-k0 (antibody, V domains shown)
VH: B1 VH with K65E
VL: B1 VL with S28P, Q39H, S94G
notes: one-arm
B18: GCH055-G1dh/none-Hi-Kn010G3/L0215-k0 (antibody, V domains shown)
VH: B1 VH with E62D
VL: B1 VL with S28P, Q39H, S94G
notes: one-arm

target: T1, human GPC3 (human, UniProt P51654 25-563); experiment: SPR
T1 construct: range 25-563; soluble analyte; also called soluble human GPC3; glypican 3
T1 sequence (P51654 25-563 limits assumed): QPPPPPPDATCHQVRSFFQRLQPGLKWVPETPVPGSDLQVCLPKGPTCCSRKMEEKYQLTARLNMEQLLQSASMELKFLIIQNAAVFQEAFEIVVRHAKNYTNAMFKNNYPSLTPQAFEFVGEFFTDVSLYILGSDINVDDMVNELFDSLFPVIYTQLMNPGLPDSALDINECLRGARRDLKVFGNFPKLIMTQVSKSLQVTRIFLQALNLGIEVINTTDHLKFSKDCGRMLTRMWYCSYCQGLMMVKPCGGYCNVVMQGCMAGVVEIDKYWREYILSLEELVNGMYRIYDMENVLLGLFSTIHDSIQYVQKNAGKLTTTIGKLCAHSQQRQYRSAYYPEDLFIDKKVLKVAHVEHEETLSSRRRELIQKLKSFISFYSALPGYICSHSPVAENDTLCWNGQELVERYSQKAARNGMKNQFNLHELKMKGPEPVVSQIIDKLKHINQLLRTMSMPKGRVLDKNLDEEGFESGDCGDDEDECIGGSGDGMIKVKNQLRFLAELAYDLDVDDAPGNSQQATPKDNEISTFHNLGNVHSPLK

In order of falling Kd:
1. B15  3.6 nM
2. B6  2.59 nM
3. B2  2.45 nM
4. B17  1.83 nM
5. B11  1.59 nM
6. B18  1.52 nM
7. B4  1.34 nM
8. B16  1.13 nM
9. B3  0.871 nM
10. B5  0.763 nM
11. B13  0.692 nM
12. B10  0.393 nM
13. B1  0.0315 nM
14. B7  0.0119 nM
15. B9  0.0118 nM
16. B12  0.00412 nM
17. B14  0.00361 nM
18. B8  0.000525 nM
